Source: the supplement of paper PMC12042874
± gives the uncertainty stated by the source.

Assay: amyloid nucleation score (Sup35N fusion, yeast selection) (log enrichment); library NNK2; higher = more nucleation; inactive = no reads after selection
Method in brief: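 Peptides of 20 random codons fused to Sup35N were expressed in psi-negative yeast, induced 24 hours with 100 μM copper sulfate, then grown 7 days at 30°C on medium lacking adenine and uracil. Input and output plasmid inserts were Illumina-sequenced. Nucleation score is the DiMSum log enrichment of output over input reads, centred on the mode score of non-aggregating sequences, excluding sequences with under 100 input reads. Random libraries had three technical output replicates.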

| Substance | amyloid nucleation score |
| --- | --- |
| DAWRFSTNSLHSTAYYYYFL | 5.781 ± 0.043 |
| DCARERYKLYNRLHWPSLSS | 0.474 ± 0.26 |
| DCDVSVNSVYITVKSAICAV | 0.767 ± 0.66 |
| DCFSYSHLRGACNVECLFYP | -0.645 ± 1.1 |
| DCISRY | 1 ± 0.68 |
| DCLIRIVQSTGVYVRWQGRA | 4.35 ± 0.086 |
| DCLNRLY | 0.138 ± 0.76 |
| DCWWYRLDSMYDLTYLGIGR | -1.03 ± 0.63 |
| DDHLCSFLRFFTNKRKRA | 4.67 ± 0.09 |
| DDRCATSNIHLLLHPLCTYL | 0.754 ± 0.37 |
| DDSNCNNHGRVDDKVR | 4.9 ± 0.038 |
| DDVKDNVYGSVEALKPRSG | 0.467 ± 0.17 |
| DDYRMVIVVT | -0.307 ± 0.33 |
| DESICCQEVGNSRVDSDEGR | 2.94 ± 0.12 |
| DETNGTGSRVRLVRRYER | 0.946 ± 0.27 |
| DEWPWAVPSGVSRGCAGSVY | 0.231 ± 0.32 |
| DFDRSMRIARDNKRYGPVLV | -0.166 ± 1.1 |
| DFFYTYGGIYGYWSFRHGIV | -1.24 ± 0.62 |
| DFGREVVVIPLSEV | 0.323 ± 0.53 |
| DFGYYREIHDEEECSCLKVY | -0.981 ± 0.78 |
| DFLNWEDFCIMSECWNSTVQ | inactive |
| DFYGYRKDFFLEQCPACSLY | -1.38 ± 0.78 |

| Substance | amyloid nucleation score |
| --- | --- |
| DFYLFQG | 0.228 ± 0.56 |
| DGASIFSSAFIVGSGTLKQM | -0.911 ± 0.78 |
| DGFRGLGLFHTY | -0.561 ± 0.31 |
| DGFYCL | 0.019 ± 1.1 |
| DGISFSAKSSSYSDASLRMR | 1.62 ± 0.097 |
| DGKMNPVSAY | inactive |
| DGKNYVKTNSNGIRNGMSIW | -0.576 ± 0.76 |
| DGKVSC | inactive |
| DGNAVCDILLLTSIMVSVSA | -0.551 ± 0.54 |
| DGPIPLLSGMGHGGRYLWCV | 1.01 ± 0.18 |
| DGPLSLNSIHFTWLRAMDKV | -0.297 ± 1.1 |
| DGSNIFLLV | -0.482 ± 0.56 |
| DGVSHC | 0.02 ± 0.79 |
| DHCMMLRFN | 0.716 ± 0.6 |
| DHFGGCYMSATRSWHDFKMG | inactive |
| DHSEYSVITKFVLHRSCSQG | 8.451 ± 0.067 |
| DIMVERGAFIGLKAD | 5.41 ± 0.068 |
| DIVIDRNMSLWDPFNIVPFE | -0.27 ± 0.79 |
| DIVMCFLGRHHQSTEAGLSM | 4.49 ± 0.056 |
| DIWPNDLGYVFVLSA | -0.218 ± 0.53 |
| DKRGF | inactive |
| DKVDLSA | 0.053 ± 1.1 |

| Substance | amyloid nucleation score |
| --- | --- |
| DKYSIVSSGPYMSNKSLVRR | -0.109 ± 0.79 |
| DLDVN | -0.214 ± 0.56 |
| DLEIPFLKRKG | -0.349 ± 0.6 |
| DLFNRNIVVCSLFLGYMVTI | 2.99 ± 0.092 |
| DLGGMP | -0.501 ± 0.48 |
| DLGHTYTSMYGFLTPSRDVD | -0.052 ± 0.5 |
| DLVRYFC | 4.26 ± 0.055 |
| DMDRCLGY | 0.812 ± 0.2 |
| DMNVVYTVCRVKARDCERDY | 5.322 ± 0.041 |
| DMTVLYCMFCSLSWQINCFR | 0.838 ± 0.25 |
| DMWTSFWSCSTYRKEYFTRC | 1.25 ± 0.11 |
| DMYLRIS | inactive |
| DNCLTGIEWI | -1.83 ± 1 |
| DNCRYVKRSSYSRVCAHYKS | -0.627 ± 0.41 |
| DNILICMYGDVYMGCYCQAI | 8.632 ± 0.05 |
| DNVGYYNINKDLKFIVGSSH | 0.274 ± 1.1 |
| DRAVLRGVVSDNSV | 0.439 ± 0.74 |
| DRFVWVADTWWSRRNNAAFG | 4.16 ± 0.054 |
| DRQTATSEMVSNRLISFRLV | 0.145 ± 0.19 |
| DRRELRHDDAVVAYIDVVIE | 1.05 ± 0.28 |
| DRRRK | 1.43 ± 0.23 |
| DRYNHKSSMIREVRLLIASY | -0.123 ± 0.76 |

| Substance | amyloid nucleation score |
| --- | --- |
| DRYYVFLILWTRGNTRRPTG | -1.02 ± 0.39 |
| DSDKLHDRDVVWNWGRGLYR | 0.399 ± 0.23 |
| DSEHYVMWLKWYLLFLTYTH | -0.307 ± 0.3 |
| DSFLKKCSLIRIQVRAVFVL | -1.14 ± 1 |
| DSIYVL | -0.831 ± 0.44 |
| DSLFIACVSLF | -0.26 ± 0.63 |
| DSLPSRNSNIGWIQWILWGI | -0.121 ± 1.1 |
| DSSMFYVIGLL | -0.626 ± 0.79 |
| DSSVSAPMSSFDRWTTHCVL | 0.373 ± 0.43 |
| DSWFRPVLNFPCSRNANKSL | 1.95 ± 0.25 |
| DSYGSFVKLMTVSVYMKGVF | inactive |
| DTALFYSNNVMTSKVGAQKS | -0.003 ± 1.1 |
| DTMRYLAGYLMACWPVEWSG | 0.685 ± 0.22 |
| DVCMPIKKSITITTATVRVY | -0.545 ± 0.63 |
| DVGSCVRGYTGQSKNLWTYG | 0.028 ± 0.79 |
| DVRPDLNDKSRTVDSDVLLC | -0.846 ± 0.78 |
| DVSVNRARFPREF | 1.1 ± 0.17 |
| DVVEDF | -0.02 ± 0.49 |
| DVVKNLYSSGLGLSTCMLYI | -0.95 ± 0.55 |
